Source: patent US20110129816A1 (NATIONAL UNIVERSITY CORPORATION UNIVERSITY OF TOYAMA, published 2011)
Changes are numbered by the printed parent chain. Where two headings read alike, the source gives them in different places.

T1: nucleoprotein of influenza virus B/Singapore/222/79 (influenza B virus B/Singapore/222/79, UniProt P04666 1-560)
T1 sequence: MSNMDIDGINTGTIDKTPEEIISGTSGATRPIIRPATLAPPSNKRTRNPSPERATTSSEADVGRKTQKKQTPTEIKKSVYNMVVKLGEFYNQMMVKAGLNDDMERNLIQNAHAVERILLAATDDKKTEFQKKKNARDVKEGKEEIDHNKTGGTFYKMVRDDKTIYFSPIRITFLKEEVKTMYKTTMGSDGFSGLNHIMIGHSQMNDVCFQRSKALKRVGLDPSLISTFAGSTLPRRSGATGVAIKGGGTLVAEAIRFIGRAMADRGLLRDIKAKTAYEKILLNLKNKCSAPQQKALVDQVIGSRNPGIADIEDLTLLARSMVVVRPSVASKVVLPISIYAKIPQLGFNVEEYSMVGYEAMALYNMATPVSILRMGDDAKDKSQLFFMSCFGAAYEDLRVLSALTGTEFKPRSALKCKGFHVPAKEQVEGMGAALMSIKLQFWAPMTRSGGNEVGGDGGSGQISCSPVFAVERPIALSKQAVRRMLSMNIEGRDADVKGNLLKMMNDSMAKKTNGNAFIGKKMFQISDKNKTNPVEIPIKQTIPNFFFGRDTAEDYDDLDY

T2: nucleoprotein of influenza virus B/Panama/45/90 (influenza B virus B/Panama/45/90, UniProt O36433 1-560)
T2 sequence: T1 sequence with I22T, A28T, K131R, T406I

T3: nucleoprotein of influenza virus B/Ann Arbor/1/86 (viral strain) (influenza B virus B/Ann Arbor/1/86, UniProt P11102 1-560)
T3 sequence: T1 sequence with T11A, I21T, I22T, V62I, K65R, A239T, I244T, S465N, V534I, P537Q

B1: human anti-influenza A virus nucleoprotein monoclonal antibody 23G447 (antibody, V domains shown)
VH: QVQLQESGPGLVKPSQTLSLTCSVSGGSISNPDHYWNWIRQPPGKGLEWIGYIYYTGRTWYSPSLKSRVSLSVDTSKSQFSLNVDSVIAADTAVYYCARSHVWFGELYWGQGALVTVSS
VL: QSVLTQPPSVSAAPGQKVTISCSGRSSNVGDNYVSWYQQFPGTAPKLLIYDNTKRPSGIPDRFSGSKSGTSATLGITGLQTGDEAAYYCATWDSVLSAGVFGGGTKLTVL
notes: also called 23G447 antibody
B2: human anti-influenza A virus nucleoprotein monoclonal antibody 23G268 (antibody, V domains shown)
VH: QVQLVQSGAVVKKPGDSVKVSCKASGYTFTTYWMHWVRQAPGQGPEWMGIVNPTGGTVMYAKKFQGRVIMTRDTSTTTVFLQLNGLESEDTAIYYCARDLGPARVDFDWLSTFVSWGQGTLVTVSS
VL: DIQMTQSPSSLSASVGDRVIITCRASQGITRHLNWYQQKSGKAPKLLIYDASSLQSGVPSRFSGSGSGADFTLTISSVQPEDFATYYCQQSYSNPPTFGPGTKVDIKR
notes: also called 23G268 antibody
B3: human anti-influenza A virus nucleoprotein monoclonal antibody 23G494 (antibody, V domains shown)
VH: QVQLVQSGGGLVKPGGSLRLSCAGSGFSFSDYYMTWIRQAPGKGLEWVSSINSGSTVTNYADSVQGRFTISRDKNSVYLQMNSLRTEDTAVYYCARDFGIKAGTSDYWGQGTLVTVSS
VL: DIQMTQSPSSLSASVGDRVTITCRASQTISNFLNWYQQKPGKAPKLLIYAASRLQSWVPSRFTGSGSGTDFALTISSLQPEDFATYYCQQTFSPRITFGPGTKVEMKR
notes: also called 23G494 antibody
B4: human anti-influenza A virus nucleoprotein monoclonal antibody 23G285 (antibody, V domains shown)
VH: QVQLVQSGGGVVQPGRSLRLSCAASGFTFSRYGMHWVRQAPGKGLEWVAVILYEGINKDYADSVKGRFTISRDNSKNTLYLQMNSLRAEDTAVYYCARDRELRLDYWGQGTLVTVSS
VL: QSVLTQPPSVSGAPGQRVTFSCTGSSSNIGAGYDVNWYQQLPGTAPKVLIYGNTNRPSGVPDRFSASKSGTSASLAITGLQAEDEADYYCQSYDSSLRGYVFGTGTKVSVL
notes: also called 23G285 antibody
B5: human anti-influenza A virus nucleoprotein monoclonal antibody 23G272 (antibody, V domains shown)
VH: QVQLVQSGAEVKKPGSSVKVSCKATGDTFSSYSISWVRQAPGQGLEWMGRVTPSFGISLYAQKFQGRVTITADRSSSTAYMELNNLTSDDTAVYYCAAGGLVVVVANHWGQGTLVTVSS
VL: EIVLTQSPATLSASVGDRVTITCRASQDITSSLGWYQQRAGEAPKLLLFAASRLESGVPSRFSGSGSGTEYTLTISNLQPEDFATYYCLHYFGSRPWTFGQGTKVEIKR
notes: also called 23G272 antibody
B6: human anti-influenza A virus nucleoprotein monoclonal antibody 23G312 (antibody, V domains shown)
VH: QVQLVQSGGGLVQPGRSLRLSCIASGFSFDDYAMHWVRQIPGKGLEWVSGISWNSGARGYADSVKGRFTISRDNAKNSLYLQMNSLRVGDTAFYYCARDMGAGPNDYDTSGNYPLHLYGMDVWGHGTTVTVSS
VL: EIVLTQSPATLSVSPGDRATLSCRASQSVSDKLAWYQQKPGQAPRLLIYGAYTRATGTPARFSGSGSGTEFTLSITGLQAEDFAIYYCHQYNNWPLTFGGGTKVDIK
notes: also called 23G312 antibody
B7: human anti-influenza B virus nucleoprotein monoclonal antibody 23G327 (antibody, V domains shown)
VH: QVQLVQSGAEVKRPGASVKVSCKASGYNLIDFYVNWVRQVPGQGLEWMGYINPDSGGAHYEGKFQGRVIMTRDTSINTAYMELPSLTSDDTAVYFCARGASSGLLTYYYGLDVWGEGTTVIVSS
VL: DIQMTQSPSSLSASIGDRVTITCRASPGINSYLAWYQHKPGKAPKLLIYAASTLQSGVPSRFSGSGSGTDFTLTISSLQPEDVATYYCQKYNSAPWTFGPGTKVEIK
notes: also called 23G327 antibody

Assays:
[1] = target: nucleoprotein of influenza virus A/Panama/2007/99 (H3N2) (influenza A virus A/Panama/2007/99 (H3N2)); experiment: sandwich CLIA, acridinium label M322211, S/N>=2.1
[2] = target: nucleoprotein of influenza virus A/Beijing/262/95 (H1N1) (influenza A virus A/Beijing/262/95 (H1N1)); experiment: sandwich CLIA, acridinium label M322211, S/N>=2.1
[3] = target: T1, nucleoprotein of influenza virus …; experiment: same-clone sandwich CLIA
[4] = target: T2, nucleoprotein of influenza virus …; experiment: same-clone sandwich CLIA
[5] = target: T3, nucleoprotein of influenza virus B/Ann …; experiment: same-clone sandwich CLIA
[6] = target: nucleoprotein of influenza virus A/Panama/2007/99 (H3N2) (influenza A virus A/Panama/2007/99 (H3N2)); experiment: sandwich CLIA, acridinium label 23G285, S/N>=2.1
[7] = target: nucleoprotein of influenza virus A/Beijing/262/95 (H1N1) (influenza A virus A/Beijing/262/95 (H1N1)); experiment: sandwich CLIA, acridinium label 23G285, S/N>=2.1
[8] = target: nucleoprotein of influenza virus A/Beijing/262/95 (H1N1) (influenza A virus A/Beijing/262/95 (H1N1)); experiment: SPR (Biacore 2000), antibody fixed directly on CM5, virus 10 µg/mL
[9] = target: nucleoprotein of influenza virus B/Victoria/504/00 (influenza B virus B/Victoria/504/00); experiment: sandwich CLIA, acridinium label 23G327, S/N>=2.1
[10] = target: nucleoprotein of influenza virus B/Victoria/504/00 (influenza B virus B/Victoria/504/00); experiment: SPR (Biacore 2000), antibody captured by anti-IgG
[11] = target: recombinant influenza A virus nucleoprotein (influenza A virus A/Puerto Rico/8/34, UniProt P03466 1-498); experiment: ELISA on coated recombinant nucleoprotein, culture supernatant
[12] = target: T1, nucleoprotein of influenza virus …; experiment: same-clone sandwich CLIA; remark: listed apart in the source
[13] = target: T2, nucleoprotein of influenza virus …; experiment: same-clone sandwich CLIA; remark: listed apart in the source
[14] = target: T3, nucleoprotein of influenza virus B/Ann …; experiment: same-clone sandwich CLIA; remark: listed apart in the source
[15] = target: nucleoprotein of influenza virus B/Victoria/504/00 (influenza B virus B/Victoria/504/00); experiment: sandwich CLIA, acridinium label M2110171, S/N>=2.1

Row | Molecule | binding result [3] | binding result [4] | binding result [5] | other results
1 | mouse anti-influenza A virus nucleoprotein monoclonal antibody ATCC HB-65 |  |  |  | detection sensitivity [1]: 50 ng/mL; detection sensitivity [2]: 50 ng/mL
2 | B1 | no binding (tested: S/N<2.1) | no binding (tested: S/N<2.1) | no binding (tested: S/N<2.1) | 
3 | B2 | no binding (tested: S/N<2.1) | no binding (tested: S/N<2.1) | no binding (tested: S/N<2.1) | detection sensitivity [6]: 6.25 ng/mL; detection sensitivity [7]: 6.25 ng/mL
4 | B3 | no binding (tested: S/N<2.1) | no binding (tested: S/N<2.1) | no binding (tested: S/N<2.1) | 
5 | B4 | no binding (tested: S/N<2.1) | no binding (tested: S/N<2.1) | no binding (tested: S/N<2.1) | 
6 | B5 | no binding (tested: S/N<2.1) | no binding (tested: S/N<2.1) | no binding (tested: S/N<2.1) | amount of bound antigens relative to HB-65 [8]: 10 fold
7 | B6 | no binding (tested: S/N<2.1) | no binding (tested: S/N<2.1) | no binding (tested: S/N<2.1) | 
8 | B7 |  |  |  | detection sensitivity [9]: 125 ng/mL; reactivity (bound antigen per bound antibody) relative to 41027 [10]: 2 fold; reactivity (bound antigen per bound antibody) relative to M2110171 [10]: 1.2 fold; reactivity (bound antigen per bound antibody) relative to antibody 2/3 [10]: 0.8 fold; binding result [11]: no binding; binding result [12]: binds; binding result [13]: binds; binding result [14]: binds; detection sensitivity [15]: 31.3 ng/mL
